Results taken from patent US12018068B2, “Anti-O1 antibodies and uses thereof” (priority 2016, dated 2024).

Assays:
[1] = test system: purified O1 LPS; experiment: ELISA binding to purified O1 LPS; design: species or system Klebsiella pneumoniae; conditions: FIG. 1A
Description: Binding to purified O1 LPS was assayed by standard ELISA method. Briefly, ELISA plates (Nunc MaxiSorp) were coated with purified O1 LPS in PBS, pH 7.2, overnight at 4 C, followed by blocking the plates with PBS supplemented with 1% BSA (PBS-B). The coated plates were incubated with series dilutions of monoclonal antibodies for 1 h at room temperature. The plates were then washed with PBS containing 0.1% Tween-20 (PBS-T) before HRP-conjugated anti-human secondary antibodies were added for 1 hour followed by TMB TMB (3,3′,5,5′-Tetrametheylbenzidine) substrates. The absorbance of 450 nm was measured by microplate reader (Molecular Devices) and the data were plotted with Prism software.

[2] = test system: K. pneumoniae capsule mutant strain 43816ΔcpsB Lux; experiment: bioluminescent opsonophagocytic killing (OPK) assay with HL-60 cells; assay type: cell-based, Klebsiella pneumoniae; conditions: for induction of OPK killing: FIG. 1C
Description: (§1) PBMC donors were ranked based on their binding titers as well as their SBA and OPK activity. OPK assays were performed as described with modifications (Wang, Q. et al. Target-Agnostic Identification of Functional Monoclonal Antibodies Against Klebsiella pneumoniae Multimeric MrkA Fimbrial Subunit J Infect Dis. 2016 Jun. 1; 213(11):1800-8). Briefly, log phase cultures of luminescent K. pneumoniae capsule mutant strain 43816ΔcpsB (43816ΔcpsB Lux) were diluted to ˜2×10^6 cells/ml. Bacteria, diluted baby rabbit serum providing complement (Cedarlane, pre-absorbed with Kp43816ΔcpsB, 1:10), dimethylformamide (DMF) differentiated HL-60 cells, and sera were mixed in 384-well plates and incubated at 37° C. for two hours with shaking (250 rpm). The relative light units (RLUs) were then measured using an Envision Multilabel plate reader (Perkin Elmer). The percentage of killing was determined by comparing RLU derived from assays with no antibodies to RLU obtained from human sera.
as §1, with “OPK” for “PBMC donors were ranked based on their binding titers as well as their SBA and OPK activity. OPK”, “al., J. Infect.” for “al. Target-Agnostic Identification of Functional Monoclonal Antibodies Against Klebsiella pneumoniae Multimeric MrkA Fimbrial Subunit J Infect”, “213:1800-8 (2016)).” for “2016 Jun. 1; 213(11):1800-8).”, “antibodies” for “sera”, “anti-K. pneumoniae mAbs and a negative control mAb.” for “human sera.”

[3] = test system: γδ T cell recruitment, K. pneumoniae Kp8045 infection; experiment: flow cytometry of γδTCR+ T cells in lungs of infected mice; assay type: in vivo; conditions: for early γδ T cell recruitment, prophylaxis: 1e4 CFU Kp8045, FIG. 14A; for γδ T cell recruitment, treatment 1 hour post infection: 1e4 CFU Kp8045, FIG. 14B
Description: TLR4 signaling has been implicated in the recruitment and activation of γδ T cells, a key cell population in the innate immune defense of the mucosa. In order to examine the effect of LPS-neutralizing and LPS-non-neutralizing anti-O1 antibodies on γδ T cell recruitment, the percent of γδTCR^+ T cells was measured in the lungs of mice treated with anti-O1 antibodies and infected with K. pneumoniae (1e4 CFU Kp8045).

[4] = test system: K. pneumoniae strain Kp4211 lux; experiment: high throughput serum bactericidal assay (SBA), complement-dependent killing; assay type: cell-based, Klebsiella pneumoniae; conditions: for complement-dependent killing in SBA: FIG. 1B
Description: Peripheral blood mononuclear cells (PBMC) and sera were separated from buffy coats from healthy blood donors (N=567). PMBC were stored in liquid nitrogen whereas the plasma was stored at 4° C. To identify Klebsiella pneumoniae immune donors, all the available sera were tested for binding to Kp43816 and Kp4211 (LPS-O1 serotype), as well as to the unencapsulated mutant strain Kp43816ΔcpsB and the double mutant Kp43816ΔcpsBΔwaaL. […] In addition, all available sera were tested for their bactericidal activity in the presence of complement using a high-throughput serum bactericidal assay (SBA assay). Overnight cultures of luminescent K. pneumoniae strain 4211 (lux) were diluted in Muller Hinton II media to make OD600 to be 0.003. Equal volume of sera, 4211 lux, and baby rabbit serum (Cedarlane) were mixed in 384 well plates and incubated at 37° C. for two hours with shaking (250 rpm). The relative light units (RLUs) were then measured using an Envision Multilabel plate reader (Perkin Elmer). The percentage of killing was determined by comparing RLU derived from assays with no antibodies to RLU obtained from human sera.
The susceptibility of the K. pneumoniae strain Kp4211 lux to serum and antibody dependent killing was measured by high throughput serum bactericidal assay (SBA). Overnight cultures of luminescent K. pneumoniae strain 4211 (lux) were diluted in Muller Hinton II media to make OD600 to be 0.003. Equal volume of antibodies, 4211 lux, and baby rabbit serum (Cedarlane) were mixed in 384 well plates and incubated at 37° C. for two hours with shaking (250 rpm). The relative light units (RLUs) were then measured using an Envision Multilabel plate reader (Perkin Elmer). The percentage of killing was determined by comparing RLU derived from assays with no antibodies to RLU obtained from anti-K. pneumoniae mAbs and a negative control mAb.

[5] = test system: Kp1131115 wild type and Kp1131115ΔwbbYZ strain; experiment: FACS binding to Kp1131115 wild type and Kp1131115ΔwbbYZ; design: species or system Klebsiella pneumoniae; conditions: Kp1131115ΔwbbYZ vs wild type
Excerpt: Klebsiella pneumoniae wbbYZ gene locus encodes D-Galactan II domain in LPS structure, which defines O1 serotype over O2.

[6] = test system: LPS (O1); experiment: LPS neutralization assay, RAW264.7-lux NF-κB luciferase reporter; assay type: cell-based, murine
Description: LPS neutralization was assayed by utilizing a murine RAW264.7 macrophage cell line carrying a firefly luciferase reporter gene under the control of an NF-κB-responsive promoter (RAW264.7-lux). Serially diluted antibody stocks were mixed with LPS in a 1:1 ratio and incubated at 4° C. for 1 hr. Antibody/LPS mixture was then diluted 1:10 into assay plates containing pre-seeded RAW264.7-lux cells (5e3 cells/well), which were then placed at 37° C./5% CO2 for 2.5 hours. Following incubations, Steady Glo (Promega) was then added to each well and incubated for another 20 min protected from light. The relative light units (RLUs) were then measured using an Envision Multilabel plate reader (Perkin Elmer). The percentage of inhibition was determined by comparing RLU derived from assays with no antibodies to RLU obtained from anti-K. pneumoniae mAbs and a negative control mAb. Activation of TLR4 receptors by bacterial LPS leads to downstream activation of the NF-κB transcriptional regulator. A decrease in induction of NF-κB-responsive luciferase activity was used to quantify LPS neutralization activity by LPS mAbs.

[7] = test system: K. pneumoniae (1e4 CFU Kp8045); experiment: survival of wild type and IL-17A−/− mice after lethal K. pneumoniae infection; assay type: in vivo, Klebsiella pneumoniae; conditions: prophylactic treatment
Excerpt: γδ T cells are major producers of IL-17, which activates key antimicrobial pathways and the phagocytic function of neutrophils. […] Wild type and IL-17A−/− mice were prophylactically treated with c-IgG, 54H7, or KPE33 and infected with a lethal number of K. pneumoniae.

B1: KPE33: human anti-K. pneumoniae O1 antigen antibody, VH SEQ ID NO:8, VL SEQ ID NO:9, isolated as IgG2 from donor #262 (antibody, V domains shown)
VH: EVQLVESGGALVQPGGSLRLSCAVSGFIFDDYAIHWVRRAPGKGLEWVSGIAWKSGATNYADSVKGRFAISRDNSKKSMYLQMNSLGTEDTALYYCTRRRASGDDTFYYFDYWGQGTLVTVSS
VL: EIVLTQSPATLSLSPGERATLSCRASQNVNTNLAWYQQRPGQSPRLLIYDASTRAAGLPARFSGSGSGTDFTLTISSLEPEDFAVYYCQQCTNWRYTFGQGTKLEIK
modifications: KPE33 VH Amino Acid Sequence; KPE33 VL Amino Acid Sequence
**Q.** For B1, which “binding to purified O1 LPS” value [1] is on record?
**A.** The value was “bound to purified O1 LPS”.

**Q.** And the “D Capsule OPK IC50” value [2]?
**A.** The value was 2.5 ng/mL.

**Q.** And the “induction of OPK killing” value [2]?
**A.** Its value is “induced OPK killing”.

**Q.** And the “early γδ T cell recruitment, prophylaxis” value [3]?
**A.** Its value is “not”.

**Q.** And the “γδ T cell recruitment, treatment 1 hour post infection” value [3]?
**A.** The value was “did not inhibit recruitment”.

**Q.** What about the “SBA Kp4211lux IC50” value [4] of the same molecule?
**A.** Its value is 64 ng/mL.

**Q.** And the “complement-dependent killing in SBA” value [4]?
**A.** Its value is “kill K. pneumoniae via complement-dependent killing”.

**Q.** And the “complement-dependent killing (SBA) in primary screening” value ([4]; strain Kp4211 (LPS-O1))?
**A.** Its value is “mediate complement-dependent killing”.

**Q.** And the “effect of wbbYZ gene knockout on binding” value [5]?
**A.** Its value is “completely abolished the binding”.

**Q.** And the LPS neutralization [6]?
**A.** Its LPS neutralization is “did not”.

**Q.** And the “survival of IL-17A−/− mice compared to wild type mice” value [7]?
**A.** Its value is “significant reduction in survival”.

B2: 54H7: mouse hybridoma anti-O1 antigen antibody (Ms IgG3), VH SEQ ID NO:47, VL SEQ ID NO:48 (antibody, V domains shown)
VH: QVHLQQPGSELVRPGASVTLSCKASGYTFTNYWMQWVKQRPGQGLEWIGNIYPGSGNTNYDEKFRSKATLTVDTSSSTAYMHLTSLTSEDSAVYYCTRNWNFDYWGQGTTLTVSS
VL: DIQMTQSPSSLSASLGERVSLTCRASQDIGSSLNWLQQEPDGTIKRLIYATSSLDSGVPKRFSGSRSGSEYSLTISSLEAEDFVDYYCLQHTDSPYTFGGGTKLELK
modifications: 54H7 VH; 54H7 VL Amino Acid Sequence
**Q.** For B2, which “binding to purified O1 LPS” value [1] is on record?
**A.** The value was “bound to purified O1 LPS”.

**Q.** What about the “D Capsule OPK IC50” value [2] of the same molecule?
**A.** The value was 2.5 ng/mL.

**Q.** What about the “induction of OPK killing” value [2] of the same molecule?
**A.** The value was “induced OPK killing”.

**Q.** And the “early γδ T cell recruitment, prophylaxis” value [3]?
**A.** The value was “inhibited”.

**Q.** And the “γδ T cell recruitment, treatment 1 hour post infection” value [3]?
**A.** The value was “did not inhibit recruitment”.

**Q.** What about the “SBA Kp4211lux IC50” value [4] of the same molecule?
**A.** Its value is 5.2 ng/mL.

**Q.** And the “complement-dependent killing in SBA” value [4]?
**A.** Its value is “kill K. pneumoniae via complement-dependent killing”.

**Q.** What about the “effect of wbbYZ gene knockout on binding” value [5] of the same molecule?
**A.** Its value is “completely abolished the binding”.

**Q.** What about the “LPS Neut (O1) IC50” value [6] of the same molecule?
**A.** The value was <0.1 ng/mL.

**Q.** What about the LPS neutralization [6] of the same molecule?
**A.** The LPS neutralization was “neutralized LPS”.

**Q.** And the “survival of IL-17A−/− mice compared to wild type mice” value [7]?
**A.** The value was “No difference in survival”.
